The record followed here is the supplement of paper PMC10567573.

The labels stand for the following.
B1: TTC32 (parent)
chain: YSAYIRRCACAASSDESPGSKCSP
B2: EHMT1 (parent)
chain: EEINKNISDFGRQQLLPPFPSLHQ
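Also: lentivirally expressed fusions sorted by FACS into six bins by GFP to DsRed ratio, PSI derived from sequencing read proportions per bin multiplied by bin number.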

The variants in one data set derive from B1. Description: protein stability index of a GFP-peptide fusion (GPS, HEK-293T) (PSI 1-6); higher = more stable. As to conditions: c terminus: a fixed tail appended.
In the case of YSAYIRRCACAHSSDESPGSKCSP [A12H], the protein stability index was 2.16. For the variant YSAYIRRCACAMSSDESPGSKCSP [A12M], the protein stability index is 1.82. For YSAYIRRCACAKSSDESPGSKCSP [A12K], the protein stability index came out at 1.81. Take YSAYIRRCACAWSSDESPGSKCSP [A12W]: the protein stability index was determined as 2.08. On to YSAYIRRCACAQSSDESPGSKCSP [A12Q], for which the protein stability index worked out at 2.12.

YSAYIRRCACAASSDNSPGSKCSP [E16N]: the protein stability index amounted to 1.92. For the variant YSAYIRRCACAASSDYSPGSKCSP [E16Y], the protein stability index came out at 2.36. As for YSAYIRRCACAASSDESPGSKHSP [C22H], the protein stability index is 2.14. Turning to YSAYIRRCACAASSDESPGSKWSP [C22W], the protein stability index worked out at 2.41. As for YVAYIRRCACAASSDESPGSKCSP [S2V], the protein stability index was 2.52. Take YYAYIRRCACAASSDESPGSKCSP [S2Y]: the protein stability index was 1.92. On to YSAQIRRCACAASSDESPGSKCSP [Y4Q], for which the protein stability index amounted to 2.65.

YSACIRRCACAASSDESPGSKCSP [Y4C]: the protein stability index was determined as 2.4. Regarding YSAIIRRCACAASSDESPGSKCSP [Y4I], the protein stability index amounted to 2.08. For PSAYIRRCACAASSDESPGSKCSP [Y1P], the protein stability index was found to be 2.88. In the case of VSAYIRRCACAASSDESPGSKCSP [Y1V], the protein stability index was determined as 2.17.

Turning to YSAYIRRCACAAASDESPGSKCSP [S13A], the protein stability index was found to be 2.07.

Turning to YSAYIRRCACAAISDESPGSKCSP [S13I], the protein stability index is 2. Still for that read-out and setting: then YSAYIRRCACAAGSDESPGSKCSP [S13G], with 2.57; and YSAYIRRCACAACSDESPGSKCSP [S13C], with 2.96; and YSAYIRRCACAASSDESPGMKCSP [S20M], with 2.12.

With YSAYIRRCACAASSDESPGKKCSP [S20K], the protein stability index came to 2.23. Consider YSAYIRRFACAASSDESPGSKCSP [C8F], for which the protein stability index was determined as 2. For the variant YSAYIRRKACAASSDESPGSKCSP [C8K], the protein stability index worked out at 3.48. With YSAYIRRHACAASSDESPGSKCSP [C8H], the protein stability index stood at 2.91.

For the variant YSAYIRRTACAASSDESPGSKCSP [C8T], the protein stability index stood at 3.06. Turning to YSAYIRRCACAASSDESPGSCCSP [K21C], the protein stability index turned out to be 2.37. As for YSAYIRRCACAASSDESPGSPCSP [K21P], the protein stability index was found to be 2.93.

As for YSAYIRPCACAASSDESPGSKCSP [R7P], the protein stability index worked out at 3.01. YSAYIRTCACAASSDESPGSKCSP [R7T]: the protein stability index is 2.08. As to YSAYIFRCACAASSDESPGSKCSP [R6F], the protein stability index is 2.64. On to YSAYIVRCACAASSDESPGSKCSP [R6V], for which the protein stability index came to 1.74.

YSAYITRCACAASSDESPGSKCSP [R6T]: the protein stability index was determined as 2.08.

With YSAYERRCACAASSDESPGSKCSP [I5E], the protein stability index is 3.46. Regarding YSAYCRRCACAASSDESPGSKCSP [I5C], the protein stability index turned out to be 2.15. Consider YSAYPRRCACAASSDESPGSKCSP [I5P], for which the protein stability index was determined as 2.24. Same read-out and setting: then YSAYQRRCACAASSDESPGSKCSP [I5Q], with 2.09; and YSAYIRRCACAASSSESPGSKCSP [D15S], with 2.41; and YSAYIRRCACAASSMESPGSKCSP [D15M], with 2.28. As for YSAYIRRCACAASSRESPGSKCSP [D15R], the protein stability index was found to be 1.85. In the case of YSAYIRRCACAASSDESPGSKCMP [S23M], the protein stability index stood at 1.61. Take YSAYIRRCACAASSDESPGSKCIP [S23I]: the protein stability index was found to be 1.4. Take YSAYIRRCACAASSDESPGSKCFP [S23F]: the protein stability index was 1.9. For YSAYIRRCACAASSDESPGSKCEP [S23E], the protein stability index came to 2.14. As to YSAYIRRCACAASGDESPGSKCSP [S14G], the protein stability index is 2.33. For YSAYIRRCACAASEDESPGSKCSP [S14E], the protein stability index amounted to 2.65. As to YSAYIRRCACAASSDEVPGSKCSP [S17V], the protein stability index was determined as 2.02. Turning to YSAYIRRCACAASSDETPGSKCSP [S17T], the protein stability index came to 2.37.

Take YSAYIRRCACAASSDEMPGSKCSP [S17M]: the protein stability index was 2.2. Take YSAYIRRCACAASSDESPQSKCSP [G19Q]: the protein stability index stood at 2. On to YSAYIRRCACAASSDESPRSKCSP [G19R], for which the protein stability index is 2.04.

As for YSTYIRRCACAASSDESPGSKCSP [A3T], the protein stability index stood at 2.16. For the variant YSAYIRRCACAASSDESPGSKCSV [P24V], the protein stability index is 2.93. With YSAYIRRCACAASSDESPGSKCSQ [P24Q], the protein stability index turned out to be 2.04. In the case of YSAYIRRCACAASSDESPGSKCSG [P24G], the protein stability index is 2.23. Turning to YSAYIRRCACNASSDESPGSKCSP [A11N], the protein stability index is 2.35. Take YSAYIRRCACDASSDESPGSKCSP [A11D]: the protein stability index was determined as 1.98. Still for that read-out and setting: then YSAYIRRCAGAASSDESPGSKCSP [C10G], with 3.46; and YSAYIRRCAFAASSDESPGSKCSP [C10F], with 2.14.

The variants in another data set derive from B2. Described as above. The following applies: c terminus: a fixed tail appended.
On to EEKNKNISDFGRQQLLPPFPSLHQ [I3K], for which the protein stability index was 3.02. On the same count and under the same terms, the result for EERNKNISDFGRQQLLPPFPSLHQ [I3R] reads 2.69.

On to EEINKNISDFGRTQLLPPFPSLHQ [Q13T], for which the protein stability index was 2.56.

As to EEINKNISDFGRWQLLPPFPSLHQ [Q13W], the protein stability index was 2.23.

EEINKNISDFGRLQLLPPFPSLHQ [Q13L]: the protein stability index is 2.48. With EEINKNISDFGRCQLLPPFPSLHQ [Q13C], the protein stability index was 2.06. Regarding EEINKNISDFGRQQLLPPFPSRHQ [L22R], the protein stability index is 3.62.

Take EEINKNISDFGRQQLLPPFPSSHQ [L22S]: the protein stability index came to 4.33. Take EEINKNISDFGRQQLLPPFPSGHQ [L22G]: the protein stability index is 3.81.

Take EEINKNISDFGRQQLLPPFPSKHQ [L22K]: the protein stability index amounted to 4.33.

In the case of EEINKNISDFGRQQLLPPFPSWHQ [L22W], the protein stability index was found to be 2.57. Turning to EEINKNISDFGRQQLLPPFPSFHQ [L22F], the protein stability index came to 2.79. Same read-out and setting: the result for EEINKNISDFGRQQLLPPFPSTHQ [L22T] reads 3.85; that for EEINKNISRFGRQQLLPPFPSLHQ [D9R], 2.22; that for EEINKNISVFGRQQLLPPFPSLHQ [D9V], 2.31. As to EEINKNISFFGRQQLLPPFPSLHQ [D9F], the protein stability index was 2.1.

Turning to EEINKNISCFGRQQLLPPFPSLHQ [D9C], the protein stability index worked out at 2.09. As to EEINKNISKFGRQQLLPPFPSLHQ [D9K], the protein stability index was 2.18. Turning to EEINKNISIFGRQQLLPPFPSLHQ [D9I], the protein stability index amounted to 2.21.

Take EEINKNISPFGRQQLLPPFPSLHQ [D9P]: the protein stability index was determined as 2.45. Regarding EEINKNISEFGRQQLLPPFPSLHQ [D9E], the protein stability index amounted to 2.5. Same read-out and setting: the result for EEINKNISDFGRQQLLPPMPSLHQ [F19M] reads 4.19; that for EEINKNISDFGRQQLLPPEPSLHQ [F19E], 4.39. Regarding EEINKNISDFGRQQLLPPHPSLHQ [F19H], the protein stability index came to 3.69. The same measure, in the same setting: the result for EEINKNISDFGRQQLLPPIPSLHQ [F19I] reads 3.61; that for EEINKNISDFNRQQLLPPFPSLHQ [G11N], 3; that for EEINKNISDFYRQQLLPPFPSLHQ [G11Y], 2.15. Take EEINKNISDFRRQQLLPPFPSLHQ [G11R]: the protein stability index is 2.48. In the case of EEINKNISDFFRQQLLPPFPSLHQ [G11F], the protein stability index was found to be 2.02. Still for that read-out and setting: then EEINKNISDFDRQQLLPPFPSLHQ [G11D], with 2.97; and EEINKNISDFWRQQLLPPFPSLHQ [G11W], with 1.55; and EEINKNISDFTRQQLLPPFPSLHQ [G11T], with 2.53. Still for that read-out and setting: the result for EEINKNISDFERQQLLPPFPSLHQ [G11E] reads 3.06; that for EEINKNISDFQRQQLLPPFPSLHQ [G11Q], 3.25; that for EEINKNISDFMRQQLLPPFPSLHQ [G11M], 2.85.
